According to patent publication US20210207126A1 (ADAGENE, published 2021):
Residue numbers refer to the chain shown, from its start.

T1: Recombinant human CTLA4-Fc (human, UniProt P16410 36-161, limits assumed)
T1 construct: Coated on the ELISA plate at 1 ug/mL; also called its antigen; not shown: Fc part
T1 sequence (looked up): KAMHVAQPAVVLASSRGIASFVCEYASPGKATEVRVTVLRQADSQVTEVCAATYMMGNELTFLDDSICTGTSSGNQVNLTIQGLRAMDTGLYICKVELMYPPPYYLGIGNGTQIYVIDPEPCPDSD

B1: TY22402 (antibody, V domains shown)
VH: EVQLVESGGGLVQPGGSLRLSCAASGYSISSGYHWSWIRQAPGKGLEWLARIDWDDDKYYSTSLKSRLTISRDNSKNTLYLQLNSLRAEDTAVYYCARSYVYFDYWGQGTLVTVSS
VL: EVGSYIVHHSDCDAFYPYCDSSGRSAGGGGSPLGLAGSGGSDIQLTQSPSSLSASVGDRVTITCRASQSVRGRFLAWYQQKPGKAPKLLIYDASNRATGIPSRFSGSGSGTDFTLTISSLQPEDFATYYCQQSSSWPPTFGQGTKVEIKR
notes: IgG1 from HEK293F cells; peptide fused to the N-terminus of the light chain of TY21580; also called masking peptide B13180
B2: TY22401 (antibody, V domains shown)
VH: B1 VH
VL: EVGSYNFVADSCPDHPYPCSASGRSAGGGGSPLGLAGSGGSDIQLTQSPSSLSASVGDRVTITCRASQSVRGRFLAWYQQKPGKAPKLLIYDASNRATGIPSRFSGSGSGTDFTLTISSLQPEDFATYYCQQSSSWPPTFGQGTKVEIKR
notes: IgG1 from HEK293F cells; masking and cleavage peptide fused to the N-terminus of the light chain of TY21580; also called masking peptide B13189
B3: TY22404 (antibody, V domains shown)
VH: B1 VH
VL: EVGSYPNPSSDCVPYYYACAYSGRSAGGGGSPLGLAGSGGSDIQLTQSPSSLSASVGDRVTITCRASQSVRGRFLAWYQQKPGKAPKLLIYDASNRATGIPSRFSGSGSGTDFTLTISSLQPEDFATYYCQQSSSWPPTFGQGTKVEIKR
notes: IgG1 from HEK293F cells; peptide fused to the N-terminus of the light chain of TY21580; also called masking peptide B13197
B4: TY21242 (antibody, V domains shown)
VH: EVQLVESGGGLVQPGGSLRLSCAASGFSLSTGGVGVGWIRQAPGKGLEWLALIDWADDKYYSPSLKSRLTISRDNSKNTLYLQLNSLRAEDTAVYYCARGGSDTVIGDWFAYWGQGTLVTVSS
VL: DIQLTQSPSSLSASVGDRVTITCRASQSIGSYLAWYQQKPGKAPKLLIYDASNLETGVPSRFSGSGSGTDFTLTISSLQPEDFATYYCQQGYYLWTFGQGTKVEIK
notes: also called parental antibody TY21242; parental CD137 antibody
B5: TY22591 (antibody, V domains shown)
VH: B4 VH
VL: EVGSYSSTHAHCHHSPANCISSGRSAGGGGSPLGLAGSGGSDIQLTQSPSSLSASVGDRVTITCRASQSIGSYLAWYQQKPGKAPKLLIYDASNLETGVPSRFSGSGSGTDFTLTISSLQPEDFATYYCQQGYYLWTFGQGTKVEIK
notes: Full IgG4 from mammalian cells; peptide fused to the N-terminus of the light chain of TY21242
B6: TY22596 (antibody, V domains shown)
VH: B4 VH
VL: EVGSYYHDYDDCRVLPRRCFNSGRSAGGGGSPLGLAGSGGSDIQLTQSPSSLSASVGDRVTITCRASQSIGSYLAWYQQKPGKAPKLLIYDASNLETGVPSRFSGSGSGTDFTLTISSLQPEDFATYYCQQGYYLWTFGQGTKVEIK
notes: as for B5
B7: TY22598 (antibody, V domains shown)
VH: B4 VH
VL: EVGSYSNNFASCLWRHRSCADSGRSAGGGGSPLGLAGSGGSDIQLTQSPSSLSASVGDRVTITCRASQSIGSYLAWYQQKPGKAPKLLIYDASNLETGVPSRFSGSGSGTDFTLTISSLQPEDFATYYCQQGYYLWTFGQGTKVEIK
notes: as for B5
B8: TY22599 (antibody, V domains shown)
VH: B4 VH
VL: B6 VL with Y6T, H7D, D8N, D11Y, R13P, V14R, P16R, R18K, F20Y, N21H
notes: as for B5
B9: TY22595 (antibody, V domains shown)
VH: B4 VH
VL: EVGSYNDYNYHCKWRPSRCHNSGRSAGGGGSPLGLAGSGGSDIQLTQSPSSLSASVGDRVTITCRASQSIGSYLAWYQQKPGKAPKLLIYDASNLETGVPSRFSGSGSGTDFTLTISSLQPEDFATYYCQQGYYLWTFGQGTKVEIK
notes: as for B5
B10: TY22594 (antibody, V domains shown)
VH: B4 VH
VL: B6 VL with Y6D, H7T, D11F, R13P, V14I, P16R, R17H, F20D, N21S
notes: as for B5
B11: TY22775 (antibody, V domains shown)
VH: B1 VH
VL: EVGHSDCDAFYPYCDSSGRSAGGGGTPLGLAGSGGSDIQLTQSPSSLSASVGDRVTITCRASQSVRGRFLAWYQQKPGKAPKLLIYDASNRATGIPSRFSGSGSGTDFTLTISSLQPEDFATYYCQQSSSWPPTFGQGTKVEIKR
notes: TY22402 with the masking peptide shortened to 16 residues; expressed in mammalian cells; isotype not restated (parent construct IgG1)
B12: TY22776 (antibody, V domains shown)
VH: B1 VH
VL: B11 VL with H4S, D8V, A9P, F10Y, P12Y, Y13A, D15A, S16Y
notes: TY22404 with the masking peptide shortened to 16 residues; expressed in mammalian cells; isotype not restated (parent construct IgG1)
B13: TY22565 (antibody, V domains shown)
VH: B1 VH
VL: B3 VL with N7Q
notes: IgG1; derived from B13197 to remove a potential glycosylation site
B14: TY22566 (antibody, V domains shown)
VH: B1 VH
VL: B3 VL with S9A
notes: as for B13
B15: TY22564 (antibody, V domains shown)
VH: B1 VH
VL: B1 VL with I6Y, V7S, H8A, H9Y, S10P, D11A, A14S, F15H, D20N, S22A
notes: IgG1; derived from B13192 to remove a potential glycosylation site
B16: TY22563 (antibody, V domains shown)
VH: B1 VH
VL: B1 VL with I6Y, V7S, H8A, H9Y, S10P, D11A, A14S, F15H, D20Q
notes: as for B15

The binders below were run against T1, Recombinant human CTLA4-Fc (assay: ELISA on plate-coated recombinant human CTLA4-Fc, before protease cleavage, data batch 2).
Procedure: (§1) Recombinant human CTLA4-Fc was diluted to 1 μg/mL in PBS and coated on a Maxisorp plate at 4° C. overnight. Plates were blocked with PBS supplemented with 3% non-fat milk at 37° C. for 1 hour. After washing, 100 μL of 3-fold serial dilutions of antibodies were added to each well. After incubation at 37° C. for 1 hour, plates were washed four times, and 100 μL HRP conjugated anti-human IgG (Fab specific) (1:6000 dilution) was added to each well. Plates were incubated at 37° C. for 1 hour, washed four times, and then 50 μL TMB substrate solution was added to each well, and the plate was incubated at room temperature. Absorbance at 450 nm was measured after the reactions were stopped with 50 μL H₂SO₄ per well. The EC₅₀ was evaluated by fitting the ELISA data using the asymmetrical sigmoidal (five-parameter logistic equation) model of GraphPad Prism 6 software.

masking efficiency (EC50 / EC50 of parental TY21580)	Binder
377 fold	B1
48 fold	B2
385 fold	B3

Each binder was assayed against T2, human CD137 displayed on yeast cells (human, UniProt Q07011 24-186, limits assumed) (assay: flow cytometry on yeast cells displaying human CD137, PE anti-human Fc).
T2 construct: Yeast cells displaying human CD137 on their surface; also called human CD137 on the cell surface
Procedure: (§2) The masking efficiency was then measured through flow cytometry. Briefly, yeast cells displaying human CD137 on their surface washed twice with PBSA buffer, and 50 μL (1×10\hat{ }6) cells were dispensed into each well of a 96 well plate. Cells were then incubated with 3-fold serial dilutions of antibodies for 1 hour on ice, washed once with PBSA buffer, and then incubated with 100 μL of PE conjugated mouse anti-human Fc (1 μg/ml) for 30 minutes on ice. The cells were then washed once prior to analysis by flow cytometry (Beckman® CytoFlex).

masking efficiency (against parental TY21242)	Binder
1 fold	B4
38.3 fold	B5
20.8 fold	B6
30.5 fold	B7
348 fold	B8
379 fold	B9
83.7 fold	B10

The binders below were run against T1, Recombinant human CTLA4-Fc (assay: ELISA on plate-coated recombinant human CTLA4-Fc as in Example 3 (FIG. 25)).
Procedure: as §1

masking efficiency (EC50 / EC50 of parental TY21580)	Binder
469 fold	B3

These binders were tested against T1, Recombinant human CTLA4-Fc (assay: ELISA on plate-coated recombinant human CTLA4-Fc, protease cleavage experiment, no treatment).
Procedure: as §1
The purified activatable antibodies were treated with the proteases which recognize the cleavage sequences, and were then tested to determine whether removal of the masking peptide restored their activity.

masking efficiency (EC50 / EC50 of parental TY21580)	Binder
216 fold	B3

The binders below were run against T1, Recombinant human CTLA4-Fc (assay: ELISA on plate-coated recombinant human CTLA4-Fc as in Example 3 (FIG. 24A)).
Procedure: as §1

masking efficiency (EC50 / EC50 of parental TY21580)	Binder
243 fold	B1
168 fold	B11
296 fold	B12
308 fold	B3

Each binder was assayed against T1, Recombinant human CTLA4-Fc (assay: ELISA on plate-coated recombinant human CTLA4-Fc, before protease cleavage, third block of Table 6 (set of FIG. 7C)).

masking efficiency (EC50 / EC50 of parental TY21580)	Binder
632 fold	B13
489 fold	B14
117 fold	B15
144 fold	B16

Each binder was assayed against T1, Recombinant human CTLA4-Fc (assay: ELISA on plate-coated recombinant human CTLA4-Fc as in Example 3 (FIG. 24B)).
Procedure: as §1

masking efficiency (EC50 / EC50 of parental TY21580)	Binder
554 fold	B1
572 fold	B3

Each binder was assayed against T1, Recombinant human CTLA4-Fc (assay: ELISA on plate-coated recombinant human CTLA4-Fc, before protease cleavage, data batch 1).
Procedure: as §1

masking efficiency (EC50 / EC50 of parental TY21580)	Binder
2210 fold	B1
110 fold	B2
826 fold	B3

Each binder was assayed against T2, human CD137 displayed on yeast cells (assay: flow cytometry on yeast cells displaying human CD137, PE anti-human Fc (column head prints EC50 over KD (nM))).
Procedure: as §2

Kd	Binder
0.28 nM	B4
10.8 nM	B5
5.86 nM	B6
8.61 nM	B7
98.1 nM	B8
107 nM	B9
23.6 nM	B10
